Measurements as given in paper PMC5510004, “Recruitment and positioning determine the specific role of the XPF‐ERCC1 endonuclease in interstrand crosslink repair”.
Changes are numbered by the printed parent chain.

Tests used:
[1] = target: T1, XPF R670S;ERCC1 wild type (hsERCC1) (Xenopus laevis;Homo sapiens?, UniProt A0A8J0PXV9;P07992 1-897;1-297, R670S|); experiment: fluorescence anisotropy; 2 mM Ca2+; comparable to wild type; 25 mM Hepes pH 8.0, 15% glycerol, 0.1 mg/ml BSA, 2 mM CaCl2, 10 nM DNA, 1 h at room temperature; conditions: protein: recombinant;recombinant; tags: FLAG;His; copies: 1;1; label: 5'-FAM on F1; three strands 1:1:1
T1 sequence 1: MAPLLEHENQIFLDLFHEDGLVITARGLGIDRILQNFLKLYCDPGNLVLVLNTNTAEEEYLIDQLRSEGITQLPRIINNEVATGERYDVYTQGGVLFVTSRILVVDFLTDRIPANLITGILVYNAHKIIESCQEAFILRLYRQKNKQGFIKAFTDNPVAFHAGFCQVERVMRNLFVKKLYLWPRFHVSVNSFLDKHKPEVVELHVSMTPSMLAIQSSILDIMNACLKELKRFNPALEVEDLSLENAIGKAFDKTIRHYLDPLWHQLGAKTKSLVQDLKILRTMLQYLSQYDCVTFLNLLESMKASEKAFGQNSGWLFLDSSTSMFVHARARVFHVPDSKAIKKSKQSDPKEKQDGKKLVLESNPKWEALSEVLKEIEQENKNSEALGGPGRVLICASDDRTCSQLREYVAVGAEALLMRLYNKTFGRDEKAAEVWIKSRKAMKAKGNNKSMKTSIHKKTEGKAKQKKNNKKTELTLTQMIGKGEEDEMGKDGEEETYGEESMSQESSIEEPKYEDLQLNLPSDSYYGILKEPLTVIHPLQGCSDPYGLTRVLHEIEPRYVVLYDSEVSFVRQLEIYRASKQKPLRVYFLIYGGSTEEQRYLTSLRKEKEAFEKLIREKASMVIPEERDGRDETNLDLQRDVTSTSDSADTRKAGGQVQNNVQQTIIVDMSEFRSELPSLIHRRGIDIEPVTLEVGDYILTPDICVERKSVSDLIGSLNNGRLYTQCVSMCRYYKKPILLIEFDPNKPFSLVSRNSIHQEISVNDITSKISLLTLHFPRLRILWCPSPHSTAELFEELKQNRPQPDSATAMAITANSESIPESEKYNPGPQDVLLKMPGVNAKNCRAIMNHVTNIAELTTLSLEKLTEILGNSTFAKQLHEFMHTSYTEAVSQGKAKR
T1 sequence 2: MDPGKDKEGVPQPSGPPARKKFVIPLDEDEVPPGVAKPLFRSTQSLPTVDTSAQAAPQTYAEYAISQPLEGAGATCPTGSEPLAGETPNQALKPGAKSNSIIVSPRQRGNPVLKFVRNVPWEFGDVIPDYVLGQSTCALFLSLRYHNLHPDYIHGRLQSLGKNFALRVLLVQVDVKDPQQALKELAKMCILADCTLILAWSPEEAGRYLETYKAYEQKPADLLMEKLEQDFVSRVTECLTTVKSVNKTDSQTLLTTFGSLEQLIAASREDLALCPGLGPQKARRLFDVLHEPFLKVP

[2] = target: T2, XPF S767F;ERCC1 wild type (hsERCC1) (Xenopus laevis;Homo sapiens?, UniProt A0A8J0PXV9;P07992 1-897;1-297, S767F|); experiment: as above; conditions: protein: recombinant;recombinant; tags: FLAG;His; copies: 1;1; label: 5'-FAM on F1; three strands 1:1:1
T2 sequence 1: T1 sequence 1 with S670R, S767F
T2 sequence 2: T1 sequence 2

B1: 3' flap DNA substrate (F1+F2+F3) (dsDNA)
DNA 1: CGCGATGCGGATCCAA
DNA 2: CCTAGACTTAAGAGGCCAGACTTGGATCCGCATCGC
DNA 3: GGCCTCTTAAGTCTAGG
B1: binds [1]; binds [2].
